In patent publication US20200121814A1 (GENERAL HOSPITAL, published 2020):
Bridge positions count the residues as written; N and C are the ends. Ends that are not written are not given here. * marks the point of attachment. Biotin = O=C1N[C@H]2[C@H](CS[C@H]2CCCCC(=O)*)N1

Key:
[1] = molecular target: HER3 extracellular domain (ECD) (R&D Systems) (human) (UniProt P21860); experiment: ELISA of purified phage on adsorbed HER3 ECD, anti-M13-HRP and ABTS
[2] = molecular target: HER3 on cells (MDA-MB-453, moderate HER3; HCC-1954, low HER3) (human) (UniProt P21860); experiment: cell binding on MDA-MB-453 cells (moderate HER3), 250 nM peptide, streptavidin-HRP and ABTS
Chain of HER3 on cells (MDA-MB-453, moderate HER3; HCC-1954, low HER3) (human) (P21860 20-1342): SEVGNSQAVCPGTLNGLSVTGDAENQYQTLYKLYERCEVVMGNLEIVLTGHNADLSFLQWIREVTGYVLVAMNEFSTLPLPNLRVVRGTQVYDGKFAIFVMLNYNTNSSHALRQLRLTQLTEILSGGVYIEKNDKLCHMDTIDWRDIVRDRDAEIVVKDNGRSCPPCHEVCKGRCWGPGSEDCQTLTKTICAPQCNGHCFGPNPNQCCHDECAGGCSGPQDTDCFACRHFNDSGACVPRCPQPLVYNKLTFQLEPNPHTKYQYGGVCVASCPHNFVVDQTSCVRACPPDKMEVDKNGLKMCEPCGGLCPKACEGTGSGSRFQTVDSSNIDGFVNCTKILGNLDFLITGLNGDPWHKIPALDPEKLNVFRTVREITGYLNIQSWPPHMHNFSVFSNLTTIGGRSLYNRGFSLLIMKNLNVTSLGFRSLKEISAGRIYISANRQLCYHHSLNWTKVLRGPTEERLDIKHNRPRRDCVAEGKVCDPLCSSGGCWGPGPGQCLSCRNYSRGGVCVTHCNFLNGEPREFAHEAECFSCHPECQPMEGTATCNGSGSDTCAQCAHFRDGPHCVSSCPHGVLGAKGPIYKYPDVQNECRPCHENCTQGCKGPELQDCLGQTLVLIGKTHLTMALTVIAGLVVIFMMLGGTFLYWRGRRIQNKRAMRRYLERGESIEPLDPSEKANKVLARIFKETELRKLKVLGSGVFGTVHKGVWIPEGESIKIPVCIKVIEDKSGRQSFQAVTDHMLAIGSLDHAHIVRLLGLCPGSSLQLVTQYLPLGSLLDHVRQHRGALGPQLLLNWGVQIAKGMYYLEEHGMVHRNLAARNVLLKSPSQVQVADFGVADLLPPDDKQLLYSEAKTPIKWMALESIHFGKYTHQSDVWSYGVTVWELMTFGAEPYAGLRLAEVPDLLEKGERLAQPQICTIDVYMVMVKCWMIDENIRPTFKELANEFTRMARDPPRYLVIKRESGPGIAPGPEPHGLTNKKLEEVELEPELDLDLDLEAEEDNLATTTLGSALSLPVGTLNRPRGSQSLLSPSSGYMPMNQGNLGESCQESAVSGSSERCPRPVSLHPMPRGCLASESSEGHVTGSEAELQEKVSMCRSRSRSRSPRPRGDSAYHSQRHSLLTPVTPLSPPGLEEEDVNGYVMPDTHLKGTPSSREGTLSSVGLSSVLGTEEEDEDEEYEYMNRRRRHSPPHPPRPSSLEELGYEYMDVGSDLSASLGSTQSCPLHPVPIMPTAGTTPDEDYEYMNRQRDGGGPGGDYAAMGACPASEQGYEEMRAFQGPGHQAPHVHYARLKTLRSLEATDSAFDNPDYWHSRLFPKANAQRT

[3] = molecular target: T1, HER2 extracellular domain (UniProt P04626 23-652, limits assumed); experiment: peptide ELISA on immobilized ECD, 250 nM peptide, streptavidin-HRP and ABTS
T1 construct: extracellular domain; Immobilized on plate for peptide ELISA; also called ErbB2; neu

[4] = molecular target: T2, HER3 extracellular domain (ECD) (R&D Systems) (human, UniProt P21860 20-643); experiment: as above
T2 construct: extracellular domain; Adsorbed to Maxisorp plates in the ELISAs; also called HER3 ECD; ERBB3
T2 sequence (P21860 20-643): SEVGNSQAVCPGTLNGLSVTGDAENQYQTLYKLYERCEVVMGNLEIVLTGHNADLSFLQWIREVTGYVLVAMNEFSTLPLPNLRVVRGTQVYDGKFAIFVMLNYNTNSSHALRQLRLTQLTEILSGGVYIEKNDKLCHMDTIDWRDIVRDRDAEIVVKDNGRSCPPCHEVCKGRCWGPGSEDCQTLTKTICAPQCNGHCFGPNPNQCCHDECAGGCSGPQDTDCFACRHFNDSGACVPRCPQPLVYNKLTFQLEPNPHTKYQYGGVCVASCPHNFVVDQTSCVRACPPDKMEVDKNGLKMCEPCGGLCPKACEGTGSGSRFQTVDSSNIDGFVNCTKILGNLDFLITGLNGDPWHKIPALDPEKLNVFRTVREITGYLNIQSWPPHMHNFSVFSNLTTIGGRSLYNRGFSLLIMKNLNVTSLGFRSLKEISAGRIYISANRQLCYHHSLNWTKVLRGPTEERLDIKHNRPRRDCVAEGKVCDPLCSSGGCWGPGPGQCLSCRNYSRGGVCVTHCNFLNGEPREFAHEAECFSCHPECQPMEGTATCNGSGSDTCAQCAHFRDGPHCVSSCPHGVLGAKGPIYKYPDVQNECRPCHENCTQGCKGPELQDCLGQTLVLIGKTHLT

[5] = molecular target: T3, EGFR extracellular domain (UniProt P00533 25-645, limits assumed); experiment: as above
T3 construct: extracellular domain; Immobilized on plate for peptide ELISA

[6] = molecular target: bovine serum albumin (bovine) (UniProt P02769); experiment: peptide ELISA on immobilized protein, 250 nM peptide, streptavidin-HRP and ABTS
Chain of bovine serum albumin (bovine) (P02769 25-607 limits assumed): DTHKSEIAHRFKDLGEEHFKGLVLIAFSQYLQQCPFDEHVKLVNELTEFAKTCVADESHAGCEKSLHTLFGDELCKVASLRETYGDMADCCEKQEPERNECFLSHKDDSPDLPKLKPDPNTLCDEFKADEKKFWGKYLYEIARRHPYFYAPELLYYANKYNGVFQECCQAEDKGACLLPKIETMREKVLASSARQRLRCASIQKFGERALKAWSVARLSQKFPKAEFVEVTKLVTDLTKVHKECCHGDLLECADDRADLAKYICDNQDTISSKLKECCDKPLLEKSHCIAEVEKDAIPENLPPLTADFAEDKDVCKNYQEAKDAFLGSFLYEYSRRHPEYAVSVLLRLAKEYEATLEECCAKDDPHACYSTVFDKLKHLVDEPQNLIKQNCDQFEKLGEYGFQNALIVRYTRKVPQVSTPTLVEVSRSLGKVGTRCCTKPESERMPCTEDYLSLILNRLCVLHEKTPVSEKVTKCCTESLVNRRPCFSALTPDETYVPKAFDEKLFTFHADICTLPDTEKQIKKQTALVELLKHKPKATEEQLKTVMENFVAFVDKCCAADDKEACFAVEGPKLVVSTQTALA

[7] = molecular target: T2, HER3 extracellular domain (ECD) (R&D …); experiment: phage binding to HER3, normalized to parent phage

Chain of HER3 extracellular domain (ECD) (R&D Systems) (human) (P21860 20-643): as the sequence (P21860 20-643) above

## control phage bearing no peptide
[1]
  absorbance (background subtracted, 405 nm): 0.007 absorbance

## control peptide
[2]
  absorbance (405 nm): 0.12 absorbance

B1: HER3P1 (biotin-conjugated, N-terminal tri-glycine linker) (peptide)
peptide: Biotin-GGGCLPTKFRSC
modifications: disulfide 4-12 (inferred); not fully specified
notes: The formulas of the description print a beta A before G-G-G; also called HER3 peptide; the peptide
[3]
  absorbance (405 nm): 0.22 absorbance
[4]
  absorbance (405 nm): 0.82 absorbance
[5]
  absorbance (405 nm): 0.21 absorbance
[6]
  absorbance (405 nm): 0.15 absorbance

B2: phage M1 (alanine mutant at position 2 of the HER3P1 binding sequence) (peptide, not shown: large carriers)
peptide: CAPTKFRSC
[7]
  decrease of binding against parent (HER3P1) phage: ≥ 50%

B3: phage M2 (alanine mutant at position 3 of the HER3P1 binding sequence) (peptide, not shown: large carriers)
peptide: CLATKFRSC
[7]
  decrease of binding against parent (HER3P1) phage: ≥ 50%

B4: phage M3 (alanine mutant at position 4 of the HER3P1 binding sequence) (peptide, not shown: large carriers)
peptide: CLPAKFRSC
[7]
  decrease of binding against parent (HER3P1) phage: ≥ 50%

B5: phage M6 (alanine mutant at position 7 of the HER3P1 binding sequence) (peptide, not shown: large carriers)
peptide: CLPTKFASC
[7]
  decrease of binding against parent (HER3P1) phage: ≥ 50%

B6: phage M7 (alanine mutant at position 8 of the HER3P1 binding sequence) (peptide, not shown: large carriers)
peptide: CLPTKFRAC
[7]
  decrease of binding against parent (HER3P1) phage: ≥ 50%
